Experiments:
SIV NC (SIVmne) [1] = assay: fluorescence anisotropy salt titration; conditions: FA: 20 mM HEPES pH 7.5, 30-750 mM NaCl, 1 mM MgCl2, 20 µM TCEP, 5 mM 2-mercaptoethanol, room temperature, 400 nM NC, 10 nM RNA (Gag: 20 nM RNA, plus 2 mM …)
HIV-1 NC (HIV-1 NL4-3) [2] = molecular target: HIV-1 NC (HIV-1 NL4-3) (UniProt P12493); assay: fluorescence anisotropy salt titration; conditions: FA: 20 mM HEPES pH 7.5, 30-750 mM NaCl, 1 mM MgCl2, 20 µM TCEP, 5 mM 2-mercaptoethanol, room temperature, 400 nM NC, 10 nM RNA (Gag: 20 nM RNA, plus 2 mM …)
HIV-1 NC (HIV-1 NL4-3) [3] = molecular target: HIV-1 NC (HIV-1 NL4-3) (UniProt P12493); assay: single-molecule DNA stretching; conditions: FA: 20 mM HEPES pH 7.5, 30-750 mM NaCl, 1 mM MgCl2, 20 µM TCEP, 5 mM 2-mercaptoethanol, room temperature, 400 nM NC, 10 nM RNA (Gag: 20 nM RNA, plus 2 mM …)
SIV NC (SIVmne) [4] = assay: single-molecule DNA stretching; conditions: FA: 20 mM HEPES pH 7.5, 30-750 mM NaCl, 1 mM MgCl2, 20 µM TCEP, 5 mM 2-mercaptoethanol, room temperature, 400 nM NC, 10 nM RNA (Gag: 20 nM RNA, plus 2 mM …)
HIV-1 NC [5] = molecular target: T1, HIV-1 NC (HIV-1 NL4-3, UniProt P12493 378-432); assay: fluorescence anisotropy salt titration; Kd(1M) extrapolated to 1 M NaCl; Zeff 2.6 ± 0.4; FA: 20 mM HEPES pH 7.5, 30-750 mM NaCl, 1 mM MgCl2, 20 µM TCEP, 5 mM 2-mercaptoethanol, room temperature, 400 nM NC, 10 nM RNA (Gag: 20 nM RNA, plus 2 mM Tris-HCl pH 7.4); stretching buffer not in material; conditions: protein: recombinant; label: 3' fluorescein (thiosemicarbazide); hairpin
HIV-1 NC [6] = molecular target: T1, HIV-1 NC; assay: fluorescence anisotropy salt titration; Kd(1M) extrapolated to 1 M NaCl; Zeff 2.4 ± 0.4; FA: 20 mM HEPES pH 7.5, 30-750 mM NaCl, 1 mM MgCl2, 20 µM TCEP, 5 mM 2-mercaptoethanol, room temperature, 400 nM NC, 10 nM RNA (Gag: 20 nM RNA, plus 2 mM Tris-HCl pH 7.4); stretching buffer not in material; conditions: protein: recombinant; label: 3' fluorescein (thiosemicarbazide); hairpin
HIV-1 NC [7] = molecular target: T1, HIV-1 NC; assay: fluorescence anisotropy salt titration; Kd(1M) extrapolated to 1 M NaCl; Zeff 3.6 ± 0.9; FA: 20 mM HEPES pH 7.5, 30-750 mM NaCl, 1 mM MgCl2, 20 µM TCEP, 5 mM 2-mercaptoethanol, room temperature, 400 nM NC, 10 nM RNA (Gag: 20 nM RNA, plus 2 mM Tris-HCl pH 7.4); stretching buffer not in material; conditions: protein: recombinant; label: 3' fluorescein (thiosemicarbazide); stem-loops

## AGUCGCUCUGCGGAGAGGCUGGCAGAUUGAGCCCUGGGAGGUUCUCUCCAGCACUAGCAGGUAGAGCCUGGGUGUUCCCUGCUAGACUCUCACCAGCACUUGGCCGGUGCUGGGCAGAGUGACU [SIV TAR RNA]
SIV NC (SIVmne) [1]
  Kd: 62 µM

## HIV-1 Psi RNA (WT)
HIV-1 NC (HIV-1 NL4-3) [2]
  Kd: 4 µM
SIV NC (SIVmne) [1]
  Kd: 3.9 µM

## CCACGACGGAGUGCUCCUAUAAAGACGCGGGUCGGUACCAGACGGCGUGAGGAGCGGGAGAGGAAGAGGCCUCCGGUUGCAGGUAAGUGCAACACAAAAAAGAAAUAGCUGUCUUUUAUCCAGGAAGGGGUAAUAAGAUAGAGUGG [SIV Psi RNA (WT)]
SIV NC (SIVmne) [1]
  Kd: 72 µM

## dsDNA used for single-molecule stretching
HIV-1 NC (HIV-1 NL4-3) [3]
  Kd: 0.0042 µM
SIV NC (SIVmne) [4]
  Kd: 0.0055 µM

## GGUCUCUCUGGUUAGACCAGAUCUGAGCCUGGGAGCUCUCUGGCUAACUAGGGAACCCACUGCUUAAGCCUCAAUAAAGCUUGCCUUGAGUGCUCAAAGUAGUG [HIV-1 TARpolyA RNA]
SIV NC (SIVmne) [1]
  Kd: 82 µM

B1: SIV TAR RNA (structured_RNA)
RNA: AGUCGCUCUGCGGAGAGGCUGGCAGAUUGAGCCCUGGGAGGUUCUCUCCAGCACUAGCAGGUAGAGCCUGGGUGUUCCCUGCUAGACUCUCACCAGCACUUGGCCGGUGCUGGGCAGAGUGACU
HIV-1 NC [5]
  Kd: 81 µM

B2: HIV-1 TARpolyA RNA (structured_RNA)
RNA: GGUCUCUCUGGUUAGACCAGAUCUGAGCCUGGGAGCUCUCUGGCUAACUAGGGAACCCACUGCUUAAGCCUCAAUAAAGCUUGCCUUGAGUGCUCAAAGUAGUG
HIV-1 NC [6]
  Kd: 120 µM

B3: SIV Psi RNA (WT) (structured_RNA)
RNA: CCACGACGGAGUGCUCCUAUAAAGACGCGGGUCGGUACCAGACGGCGUGAGGAGCGGGAGAGGAAGAGGCCUCCGGUUGCAGGUAAGUGCAACACAAAAAAGAAAUAGCUGUCUUUUAUCCAGGAAGGGGUAAUAAGAUAGAGUGG
HIV-1 NC [7]
  Kd: 100 µM

Source: paper PMC5198506, “Mechanistic differences between HIV-1 and SIV nucleocapsid proteins and cross-species HIV-1 genomic RNA recognition”
